Laboratory results published in patent publication US20160177324A1, “NOVEL PROTEIN AND GENE RELATED TO FLAVONOID O-METHYLTRANSFERASE (FOMT) AND THEIR USES THEREFORE” (INSTITUTE OF BOTANY, THE CHINESE ACADEMY OF SCIENCES, priority 2013, published 2016).

How the values were obtained:
[1] = Comparison of activities among recombinant polypeptides with site mutagenesis; assay type: biochemical; details: Cy3G5G as substrate
Procedure: The reaction system was according to Hugueney et al. with some modification (Hugueney, P., et al., A novel cation-dependent O-methyltransferase involved in anthocyanin methylation in grapevine. Plant Physiology, 2009. 150(4): p. 2057-2070.). Purified recombinant FOMT (2 μg) was assayed in a final volume of 200 μL containing 200 μM SAM, 1 mM MgCl2, 14 mM β-mercaptoethanol, 100 mM Tris, pH 7.5, and 20 μM flavonoid substrates. Incubation was performed at 35° C. and stopped with 200 μL methanol containing 2% formic acid. For enzyme kinetic studies, purified FOMT was incubated based on the above condition with the exception that a range of substrate concentrations from 5 to 200 μM were used for Km determination. Reaction product was analyzed by a Dionex HPLC system (Sunnyvale, Calif.), equipped with a P680 HPLC pump, an UltiMate 3000 autosampler, a TCC-100 thermostated column compartment and a Dionex PDA100 photodiode array detector. The analytical column was C18 column of ODS 80Ts QA (150 mm×4.6 mm, 5 μm i.d., Tosoh, Tokyo) protected with a C18 guard cartridge (Shanghai ANPEL Scientific Instrument, Shanghai). The following solvent and gradient were used: A, 10% aqueous formic acid; B, methanol; constant gradient from 10 to 36% B within 15 min and back to 10% B in 3 min; the flow rate was 0.8 mL min^−1; Column temperature was maintained at 35° C.; 20 μL of analyte was injected. Chromatograms were obtained at 525 nm for anthocyanins and 350 nm for other flavonoids, and photodiode array spectra were recorded from 200 to 800 nm. Km and Vmax values were calculated from Lineweaver-Burk plots.
To validate the key amino acid responsible for the activity, site-directed mutagenesis was carried out using the PCR method and Fast Mutagenesis System (TransGen), and primer sequences used are given in Table 1. Four constructs were built following the template sequence of PtFOMT, named as PtFOMT-G13E, PtFOMT-T85A, PtFOMT-R87L, and PtFOMT-T205R. The corresponding recombinant proteins were purified and the catalytic activities were examined. […] The other mutants have no significant improved activity compared with PtFOMT. The leucine at 87-position is a vital residue for the methyltransferase activity.

[2] = system: Fragaria×ananassa cv. 'Hongyan' fruits; test: Transient expression in strawberry fruit (coexpression with PAP1); assay type: in vivo
Procedure: A strawberry cultivar, Fragaria×ananassa cv. ‘Hongyan’ (The Beijing Agricultural Technology Extension Station) with fruits turning red were chosen as subjects. A single colony of Agrobacterium strain EHA105 with pBI121-FOMT construct was inoculated, and the pellet were centrifuged and washed with infiltration buffer (50 mM Mes, pH 5.6, 2 mM Na3PO4, 0.5% glucose (w/v), and 100 mM acetosyringone) according to Hoffmann et al. (Hoffmann, T., G. Kalinowski, and W. Schwab, RNAi-induced silencing of gene expression in strawberry fruit (Fragaria×ananassa) by agroinfiltration: a rapid assay for gene function analysis. Plant Journal, 2006. 48(5): p. 818-826.). The bacterial suspension was diluted with infiltration buffer to adjust the inoculum concentration to OD600 0.1-0.3. A syringe infiltration method was used to transient transform strawberry fruits. The infiltrated fruits were harvested after four days for anthocyanin content analyses as follow. […] The MS conditions were listed as follow: negative-ion (NI) mode; capillary voltage of 3.5 kV; a nebulization pressure of 241.3 kPa; and a gas (N2) temperature of 350° C. with flow rate of 6.0 L min^−1 Capillary offset voltage was 77.2 V. MS spectra were recorded over the range from m/z 50-1000.

B1: PsFOMT: flavonoid O-methyltransferase from tree peony Paeonia suffruticosa cv. 'Gunpohden', SEQ ID NO: 3; recombinant MBP fusion protein (protein, listed as Paeonia suffruticosa)
chain: MAESDRKGILKSEALLKYILETSVYPREHEQLKQLRQATVDKYKYWSVMNVPADEGQFLSMLLKIMNAKKTIEVGVFTGYSLLTAALALPTDAKITAIDPDGEAYETGLPFIKKAGVEHKINYIQADAMSVLDDLVTNGKEEGSFDFAFVDADKENYAKYHEPLMKLVKIGGIIGYDNTLWFGSVALSDGDEMKEFQEKGRRIFREFNTFLAADPRIELAHISIGDGLALCRRLY
modifications: MBP fusion
notes: recombinant MBP fusion protein
- Activity (%), portion of recombinant protein activity compared with PsFOMT ([1]; Incubation 5 min): 100%
- Activity (%), portion of recombinant protein activity compared with PsFOMT ([1]; Incubation 30 min): 100%
- proportion of methylated products (Pn type) to precursors (Cy type) [2]: more than that of PtFOMT
